In the supplement of paper PMC9170038:

Test system: MS2 coat protein
Assay: apparent KD of MS2 coat protein; designed switch direction (-1 OFF switch, 1 ON switch): 1; higher = weaker reporter binding
Outline: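 RNA switches sharing common flanks were transcribed by stalled E. coli RNA polymerase on Illumina chips. A doubling series of SNAP-549-labelled MS2 coat protein, from 0.7 or 1.5 nM to 3 µM, was applied in Tris-HCl pH 7.5 buffer with KCl, MgCl2, BSA, DTT, tRNA and Tween-20. Each step lasted 0.8–1.5 h at the bottom of the series and 10–20 min at the top. Normalised cluster fluorescence was curve-fitted, giving apparent KD as the per-design median over clusters.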

[1] = input ligand: microRNA oligo, concentration not stated
[2] = Eterna round: R95, input ligand: microRNA oligo, concentration not stated
[3] = Eterna round: R95, input ligand: FMN 200 uM
[4] = Eterna round: R95, input ligand: none

Sequence	apparent KD of MS2 coat protein (input ligand: FMN 200 uM)	apparent KD of MS2 coat protein [1]	apparent KD of MS2 coat protein (input ligand: none)	apparent KD of MS2 coat protein [2]	apparent KD of MS2 coat protein [3]	apparent KD of MS2 coat protein [4]
GCUACAUGAGGAUCACCCAUGUGUGCGUGGGAGUGAGUGGCUUAGGAUAUCUAUGAUUUUAGUUGAGAGAAGGAGGAUUGCUGU [SS-NG3-LRO10] (Eterna round: R96, puzzle: Same State NG 3)	193 nM	140 nM	175 nM			
GCUACCAAAGAAGCCUACAUGAGGAUCACCCAUGUAUGUAGGCAGGAUAUCGAUUGCAAAGCGAUCGAGAAGGGCUUAGGUAGC [Mat - Same State NG 3 - JL Mod - D92] (Eterna round: R96, puzzle: Same State NG 3)	68.9 nM	116 nM	152 nM			
GCUACCAUUGAAGCCAACAUGAGGAUCACCCAUGUAUGUUGGCAGGAUAUCGAUUGCUUUGCGAUCGAGAAGGGCUAAGGUAGC [JL SSNG3 1.29] (Eterna round: R96, puzzle: Same State NG 3)	120 nM	153 nM	171 nM			
GCUACCAUUGAUGCCUACAUGAGGAUCACCCAUGUAUGUAGGCAGGAUAUCGAUUGCUUUGCGAUCGAGAAGGGCUUAGGUAGC [JL SSNG3 1.31] (Eterna round: R96, puzzle: Same State NG 3)	52.4 nM	139 nM	183 nM			
GCUAGAAAUAAUGCCAACAUGAGGAUCACCCAUGUAUGUUGGCAGGAUAUCGUUUGCUUUGCAAACGAGAAGGGCUAAACUAGC [Mat - Same State NG 3 - JL Mod - D7] (Eterna round: R96, puzzle: Same State NG 3)	280 nM	296 nM	280 nM			
GCUAGAAUUAAAGCCAACAUGAGGAUCACCCAUGUAUGUUGGCAGGAUAUCGUUUGCAAAGCAAACGAGAAGGGCCAAACUAGC [Mat - Same State NG 3 - JL Mod - D2] (Eterna round: R96, puzzle: Same State NG 3)	43.2 nM	94.1 nM	125 nM			
GCUAGAAUUAAAGCCAACAUGAGGAUCACCCAUGUAUGUUGGCAGGAUAUCGUUUGCAAAGCAAACGAGAAGGGCUAAACUAGC [Mat - Same State NG 3 - JL Mod - D4] (Eterna round: R96, puzzle: Same State NG 3)	197 nM	100 nM	244 nM			
GCUAGGAAAGAAGCCAACAUGAGGAUCACCCAUGUAUGUUGGUAGGAUAUCGUAUGCAAAGCAUACGAGAAGGGCUAACCUAGC [Mat - Same State NG 3 - JL Mod - D74] (Eterna round: R96, puzzle: Same State NG 3)	127 nM	127 nM	153 nM			
GCUAGUAUAAUUGCUAACAUGAGGAUCACCCAUGUAUGUUGGCAGGAUAUCGUUUGCAAAGCAAACGAGAAGGGCUAAACUAGC [Mat - Same State NG 3 - JL Mod - D14] (Eterna round: R96, puzzle: Same State NG 3)	36.3 nM	103 nM	104 nM			
GCUCGAAUCAAAACCAACAUGAGGAUCACCCAUGUAUGUUGGUAGGAUAUCGUUUGCUUUGCAAACGAGAAGGACCAAACGAGC [SameState NG3 #2] (Eterna round: R96, puzzle: Same State NG 3)	26.8 nM	67 nM	94.2 nM			
GCUCGAAUCACAGCCAACAUGAGGAUCACCCAUGUGUGUUGGUAGGAUAUCGUUUCUAAGGGAAACGAGAAGGGCCGAACGAGC [SameState NG3 #9] (Eterna round: R96, puzzle: Same State NG 3)	31.5 nM	39.2 nM	52.1 nM			
GCUCGACGUGUUGUCUACAUGAGGAUCACCCAUGUAGGUGCGGAGGAUAUCUACGUGUUUUAUGUAGAGAAGGUCGUGUCGAGC [SameState NG3 #88] (Eterna round: R96, puzzle: Same State NG 3)	15.1 nM	15.5 nM	17.2 nM			
GCUCGACUGAUGGCCUACAUGAGGAUCACCCAUGUGAUUGGGCAGGAUAUCUAGAUGCAGGAUGUAGAGAAGGGCCUGUCGAGC [SameState NG3 #44] (Eterna round: R96, puzzle: Same State NG 3)	1170 nM	194 nM	349 nM			
GCUCGGCUGAUGGCCUACAUGAGGAUCACCCAUGUGAGUGGGCAGGAUAUCUAGAUUCAGGAUGUAGAGAAGGGCCUGCCGAGC [SameState NG3 #39] (Eterna round: R96, puzzle: Same State NG 3)	1500 nM	331 nM	1190 nM			
GCUCGUAUCACAACCGACAUGAGGAUCACCCAUGUAUGUUGGUAGGAUAUCUAUAUUAAGGAUAUAGAGAAGGGCCGAACGAGC [SameState NG3 #13] (Eterna round: R96, puzzle: Same State NG 3)	14.6 nM	10.4 nM	18.7 nM			
GGAAAACAUGAGGAUCACCCAUGUGAAAACGUGGGAGGAUAUCGAUGGAAACCAUACUGUCGAGAAGGCCCAUGUC [EteRNA is fun!] (Eterna round: R96, puzzle: Same State 1)		41.8 nM				
GGAAAGAGGUUAGGAUAUGCAUGGCUGGGACAUGAGGAUCACCCAUGUAAUAGAAGAAAUCUACAGUAGAAGGGACAAGGAAGG [AK SSNG2-V2-8] (Eterna round: R96, puzzle: Same State NG 2)	759 nM	262 nM	224 nM			
GGAAUAUUUACAGGAUAUGAUUUGUAAAUUCGAUCAGAAGGGUAGAUGUCUUACACGACUUGUUACAUGAGGAUCACCCAUGUU [SameState NG1 #9] (Eterna round: R96, puzzle: Same State NG 1)	41.6 nM	48.8 nM	67.3 nM			
GGACGUCAAUAUGAAUUCCACAUGAGGAUCACCCAUGUUCAUGAGGAUAUGGAUCCUAAUUGGAUCCAGAAGGCAUGGACGUCC [Fiskers NG3ss - 38] (Eterna round: R96, puzzle: Same State NG 3)	81.9 nM	163 nM	194 nM			
GGAGAACAUGAGGAUCACCCAUGUGGAUGGGCGCUAGGAUAUGCGGGAGGGUGAAGAGAAGCAGAAGGAGUGGAUA [JR_SS1_Sub035] (puzzle: Same State 1)				56.7 nM		
GGAGAAUAACUAGAGGAUAUCCGAGUGGUAACAUGAGGAUCACCCAUGUGAUGAAAGGAACAUGAGGAGAAGGCUAGAAUGAAGG [Mat - Same State 2 - Mod of JL - D85] (puzzle: Same State 2)				34.9 nM	37.3 nM	77.6 nM
GGAGCCAAGGCAGGAUAUUCAUACUAAUAACAUGAGGAUCACCCAUGUAAGGCCAGAAGGCCUUGGGAGAAGGGCCAUGGCUCG [Xeonanis - 13 mod3] (Eterna round: R96, puzzle: Same State NG 2)	22 nM	57.1 nM	86.7 nM			
GGAGCCAAGGCAGGAUAUUCAUAUUAAAACAUGAGGAUCACCCAUGUAAAGGCCAGAAGGCCGUGGGAGAAGGGCCAUGGCUCG [Xeonanis - 13 mod15] (Eterna round: R96, puzzle: Same State NG 2)	38.5 nM	51.7 nM	116 nM			
GGAGCCAAGGCAGGAUAUUCAUAUUAAAACAUGAGGAUCACCCAUGUAAAGGCCAGAAGGCCUUUGGAGAAGGGCCAUGGCUCG [Xeonanis - 13 mod14] (Eterna round: R96, puzzle: Same State NG 2)	17.7 nM	15 nM	24.4 nM			
GGAGCCAAGGCAGGAUAUUCAUAUUAAAUAACAUGAGGAUCACCCAUGUUGGCCAGAAGGCCAUGGGAGAAGGGCCAUGGCUCG [Xeonanis - 13 mod22] (Eterna round: R96, puzzle: Same State NG 2)	18.8 nM	53.1 nM	87.2 nM			
GGAGCCAAGGCAGGAUAUUCAUAUUAAUAACACAUGAGGAUCACCCAUGUGGCCAGAAGGCCAUGGGAGAAGGGCCAUGGCUCG [Xeonanis - 13 mod10] (Eterna round: R96, puzzle: Same State NG 2)	86.3 nM	195 nM	469 nM			
GGAGCCAAGGCAGGAUAUUCAUAUUAAUUACAUGAGGAUCACCCAUGUUAGGCCAGAAGGCCUUGGGAGAAGGGCCAUGGCUCG [Xeonanis - 13 mod19] (Eterna round: R96, puzzle: Same State NG 2)	22.9 nM	47.2 nM	60.6 nM			
GGAGCCGGCACCGAGGAUAUUUAUAUUAAAACAUGAGGAUCACCCAUGUAGGCCAGAAGGCCUUGGGAGAAGGCGGAUCGGCUCG [Xeonanis - 5] (puzzle: Same State 2)				75.7 nM	16.4 nM	79.6 nM
GGAGCCGGCACUGAGGAUAUUCAUAUUUAAACAUGAGGAUCACCCAUGUAGGCCAGAAGGCCUUGGGAGAAGGCAGGUCGGCUCU [salish99_ss2_r3_077] (puzzle: Same State 2)				247 nM	20.8 nM	434 nM
GGAGCCGGUACUGAGGAUAUUCAUUUUAAAACAUGAGGAUCACCCAUGUAGGCCAGAAGGCCUUGGGAGAAGGCAGAUCGGCUCC [Biseusra - 6] (puzzle: Same State 2)				180 nM	19 nM	281 nM
